Data on 46 substances can be found in the Human Domainome abundance scans (Beltran et al. 2025).

± gives the uncertainty stated by the source.

A short description of this data set: abundance fitness (aPCA) (normalised: wild type 0, dead -1); higher = more abundant; growth selection in yeast, the domain comes from the species named. The following applies: Homo sapiens.
“Lipoamide acyltransferase component of branched-chain alpha-keto acid dehydrogenase complex, mitochondrial L206S, P11182” registered an abundance fitness of -0.072 ± 0.049.

Substance “Lipoamide acyltransferase component of branched-chain alpha-keto acid dehydrogenase complex, mitochondrial L206V, P11182” yielded an abundance fitness of -0.026 ± 0.043. As for “Lipoamide acyltransferase component of branched-chain alpha-keto acid dehydrogenase complex, mitochondrial L206W, P11182”, the figure is -0.135 ± 0.052. In the case of “Lipoamide acyltransferase component of branched-chain alpha-keto acid dehydrogenase complex, mitochondrial L209A, P11182” it was 0.037 ± 0.043.

“Lipoamide acyltransferase component of branched-chain alpha-keto acid dehydrogenase complex, mitochondrial L209C, P11182” displayed an abundance fitness of -0.052 ± 0.057. In the case of “Lipoamide acyltransferase component of branched-chain alpha-keto acid dehydrogenase complex, mitochondrial L209D, P11182” it was -0.203 ± 0.045; in that of “Lipoamide acyltransferase component of branched-chain alpha-keto acid dehydrogenase complex, mitochondrial L209E, P11182”, -0.153 ± 0.04; in that of “Lipoamide acyltransferase component of branched-chain alpha-keto acid dehydrogenase complex, mitochondrial L209F, P11182”, -0.211 ± 0.098.

Substance “Lipoamide acyltransferase component of branched-chain alpha-keto acid dehydrogenase complex, mitochondrial L209G, P11182” showed an abundance fitness of -0.081 ± 0.034.

Regarding “Lipoamide acyltransferase component of branched-chain alpha-keto acid dehydrogenase complex, mitochondrial L209I, P11182”, the abundance fitness was 0.047 ± 0.17. Turning to “Lipoamide acyltransferase component of branched-chain alpha-keto acid dehydrogenase complex, mitochondrial L209K, P11182”, the abundance fitness is 0.079 ± 0.087. As for “Lipoamide acyltransferase component of branched-chain alpha-keto acid dehydrogenase complex, mitochondrial L209N, P11182”, the abundance fitness was -0.138 ± 0.073.

Consider “Lipoamide acyltransferase component of branched-chain alpha-keto acid dehydrogenase complex, mitochondrial L209P, P11182”, for which the abundance fitness is -0.226 ± 0.051.

“Lipoamide acyltransferase component of branched-chain alpha-keto acid dehydrogenase complex, mitochondrial L209Q, P11182”: the abundance fitness was -0.072 ± 0.043.

Turning to “Lipoamide acyltransferase component of branched-chain alpha-keto acid dehydrogenase complex, mitochondrial L209R, P11182”, the abundance fitness is 0.006 ± 0.036. In the case of “Lipoamide acyltransferase component of branched-chain alpha-keto acid dehydrogenase complex, mitochondrial L209S, P11182” it was -0.026 ± 0.041. In the case of “Lipoamide acyltransferase component of branched-chain alpha-keto acid dehydrogenase complex, mitochondrial L209T, P11182” it was -0.131 ± 0.058. In the case of “Lipoamide acyltransferase component of branched-chain alpha-keto acid dehydrogenase complex, mitochondrial L209V, P11182” it was 0.006 ± 0.039; in that of “Lipoamide acyltransferase component of branched-chain alpha-keto acid dehydrogenase complex, mitochondrial L209W, P11182”, -0.27 ± 0.047; in that of “Lipoamide acyltransferase component of branched-chain alpha-keto acid dehydrogenase complex, mitochondrial L209Y, P11182”, -0.232 ± 0.087. Regarding “Lipoamide acyltransferase component of branched-chain alpha-keto acid dehydrogenase complex, mitochondrial M182A, P11182”, the abundance fitness was determined as 0.018 ± 0.072. As for “Lipoamide acyltransferase component of branched-chain alpha-keto acid dehydrogenase complex, mitochondrial M182C, P11182”, the figure is -0.478 ± 0.12; as for “Lipoamide acyltransferase component of branched-chain alpha-keto acid dehydrogenase complex, mitochondrial M182I, P11182”, -0.408 ± 0.24.

Substance “Lipoamide acyltransferase component of branched-chain alpha-keto acid dehydrogenase complex, mitochondrial M182T, P11182” came in with an abundance fitness of -0.173 ± 0.075. “Lipoamide acyltransferase component of branched-chain alpha-keto acid dehydrogenase complex, mitochondrial N184E, P11182” registered an abundance fitness of -0.859 ± 0.39. In the case of “Lipoamide acyltransferase component of branched-chain alpha-keto acid dehydrogenase complex, mitochondrial N184G, P11182” it was -0.294 ± 0.093; in that of “Lipoamide acyltransferase component of branched-chain alpha-keto acid dehydrogenase complex, mitochondrial N184L, P11182”, -0.325 ± 0.11; in that of “Lipoamide acyltransferase component of branched-chain alpha-keto acid dehydrogenase complex, mitochondrial N184P, P11182”, -1.08 ± 0.4.

“Lipoamide acyltransferase component of branched-chain alpha-keto acid dehydrogenase complex, mitochondrial N184Q, P11182” showed an abundance fitness of -0.16 ± 0.1. As for “Lipoamide acyltransferase component of branched-chain alpha-keto acid dehydrogenase complex, mitochondrial N184R, P11182”, the figure is -0.097 ± 0.072; as for “Lipoamide acyltransferase component of branched-chain alpha-keto acid dehydrogenase complex, mitochondrial N184S, P11182”, 0.168 ± 0.38. In the case of “Lipoamide acyltransferase component of branched-chain alpha-keto acid dehydrogenase complex, mitochondrial N184W, P11182” it was -0.179 ± 0.1. In the case of “Lipoamide acyltransferase component of branched-chain alpha-keto acid dehydrogenase complex, mitochondrial N185A, P11182” it was -0.21 ± 0.074. Turning to “Lipoamide acyltransferase component of branched-chain alpha-keto acid dehydrogenase complex, mitochondrial N185D, P11182”, the abundance fitness is -0.178 ± 0.092.

Substance “Lipoamide acyltransferase component of branched-chain alpha-keto acid dehydrogenase complex, mitochondrial N185E, P11182” showed an abundance fitness of -0.09 ± 0.086. For the substance “Lipoamide acyltransferase component of branched-chain alpha-keto acid dehydrogenase complex, mitochondrial N185H, P11182”, the abundance fitness is -0.164 ± 0.16. Substance “Lipoamide acyltransferase component of branched-chain alpha-keto acid dehydrogenase complex, mitochondrial N185I, P11182” gave an abundance fitness of -0.83 ± 0.09. On to “Lipoamide acyltransferase component of branched-chain alpha-keto acid dehydrogenase complex, mitochondrial N185K, P11182”, for which the abundance fitness amounted to 0.016 ± 0.1. Turning to “Lipoamide acyltransferase component of branched-chain alpha-keto acid dehydrogenase complex, mitochondrial N185L, P11182”, the abundance fitness is -0.514 ± 0.26. Substance “Lipoamide acyltransferase component of branched-chain alpha-keto acid dehydrogenase complex, mitochondrial N185M, P11182” gave an abundance fitness of -0.273 ± 0.18. On to “Lipoamide acyltransferase component of branched-chain alpha-keto acid dehydrogenase complex, mitochondrial N185P, P11182”, for which the abundance fitness was -1.01 ± 0.17.

“Lipoamide acyltransferase component of branched-chain alpha-keto acid dehydrogenase complex, mitochondrial N185Q, P11182” registered an abundance fitness of -0.155 ± 0.11.

In turn, “Lipoamide acyltransferase component of branched-chain alpha-keto acid dehydrogenase complex, mitochondrial N185R, P11182” registered an abundance fitness of -0.165 ± 0.1. In the case of “Lipoamide acyltransferase component of branched-chain alpha-keto acid dehydrogenase complex, mitochondrial N185V, P11182” it was -0.744 ± 0.1; in that of “Lipoamide acyltransferase component of branched-chain alpha-keto acid dehydrogenase complex, mitochondrial N185W, P11182”, -0.688 ± 0.16; in that of “Lipoamide acyltransferase component of branched-chain alpha-keto acid dehydrogenase complex, mitochondrial N207A, P11182”, 0.034 ± 0.04.
